# Laboratory results published in the supplement of paper PMC9112550, “Optimization of the antimicrobial peptide Bac7 by deep mutational scanning” (BMC Biology, 2022).
# Test system: Escherichia coli TOP10
# Experiment: shrunken log2 fold change of peptide-encoding DNA abundance (4.5 h post-induction vs induction); higher = less antimicrobial activity (less host growth inhibition)
# Details: time post-induction: 4.5 h; library: site-saturation at positions 5, 18, 19, 20
# 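Also: peptides expressed intracellularly from a pBAD plasmid library in pooled LB shake-flask culture, induced with 0.3% L-arabinose, DNA abundance read by NGS, three biological replicates, DESeq2 with apeglm shrinkage.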
row,Sequence,shrunken log2 fold change
1,RRIRSRPPRLPRPRPRPTSGPRP,0.194
2,RRIRFRPPRLPRPRPRPVWTPRP,-0.488
3,RRIRSRPPRLPRPRPRPCLQPRP,-0.197
4,RRIRSRPPRLPRPRPRPNPNPRP,-0.283
5,RRIRHRPPRLPRPRPRPYGTPRP,-1.41
6,RRIRWRPPRLPRPRPRPNIPPRP,-0.476
7,RRIRWRPPRLPRPRPRPMAEPRP,0.203
8,RRIRGRPPRLPRPRPRPEFGPRP,0.797
9,RRIRDRPPRLPRPRPRPMTSPRP,-0.169
10,RRIRGRPPRLPRPRPRPVMSPRP,0.401
11,RRIRLRPPRLPRPRPRPCRYPRP,-0.0582
12,RRIRGRPPRLPRPRPRPISNPRP,0.0729
13,RRIRTRPPRLPRPRPRPKPQPRP,0.203
14,RRIRGRPPRLPRPRPRPTFTPRP,0.638
15,RRIRTRPPRLPRPRPRPGVKPRP,0.14
16,RRIRKRPPRLPRPRPRPGYDPRP,-0.0159
17,RRIRSRPPRLPRPRPRPKKAPRP,0.0943
18,RRIRLRPPRLPRPRPRPMINPRP,-0.224
19,RRIRLRPPRLPRPRPRPTRTPRP,0.243
20,RRIRIRPPRLPRPRPRPMIDPRP,-1.15
21,RRIRTRPPRLPRPRPRPKYYPRP,-0.54
22,RRIRHRPPRLPRPRPRPWLVPRP,-0.0872
23,RRIRSRPPRLPRPRPRPFVNPRP,-0.99
24,RRIRGRPPRLPRPRPRPCKIPRP,-0.189
25,RRIRFRPPRLPRPRPRPTHMPRP,0.0264

row,Sequence,shrunken log2 fold change
1,RRIRSRPPRLPRPRPRPGDFPRP,0.0535
2,RRIRPRPPRLPRPRPRPRQYPRP,-0.257
3,RRIRLRPPRLPRPRPRPILQPRP,-0.129
4,RRIRIRPPRLPRPRPRPWNRPRP,0.000744
5,RRIRRRPPRLPRPRPRPYEIPRP,-0.39
6,RRIRGRPPRLPRPRPRPCQAPRP,-0.0272
7,RRIRVRPPRLPRPRPRPASMPRP,0.0106
8,RRIRIRPPRLPRPRPRPYPLPRP,-0.176
9,RRIRGRPPRLPRPRPRPAIKPRP,0.534
10,RRIRLRPPRLPRPRPRPLQEPRP,-0.101
11,RRIRDRPPRLPRPRPRPKGMPRP,-0.00453
12,RRIRYRPPRLPRPRPRPFLSPRP,-0.0547
13,RRIRYRPPRLPRPRPRPPWMPRP,-0.0946
14,RRIRRRPPRLPRPRPRPWDAPRP,0.143
15,RRIRLRPPRLPRPRPRPVTVPRP,-0.128
16,RRIRCRPPRLPRPRPRPHSGPRP,0.00506
17,RRIRSRPPRLPRPRPRPFCPPRP,-0.31
18,RRIRSRPPRLPRPRPRPPLFPRP,0.257
19,RRIRLRPPRLPRPRPRPPNRPRP,0.0237
20,RRIRDRPPRLPRPRPRPFLMPRP,-0.0685
21,RRIRHRPPRLPRPRPRPMMDPRP,-0.214
22,RRIRKRPPRLPRPRPRPNQKPRP,0.11
23,RRIRCRPPRLPRPRPRPSRTPRP,0.0175
24,RRIRMRPPRLPRPRPRPNYAPRP,-0.193
25,RRIRDRPPRLPRPRPRPTALPRP,0.573

row,Sequence,shrunken log2 fold change
1,RRIRQRPPRLPRPRPRPDKPPRP,-0.214
2,RRIRFRPPRLPRPRPRPLWHPRP,-0.248
3,RRIRRRPPRLPRPRPRPWAPPRP,0.043
4,RRIRNRPPRLPRPRPRPCSVPRP,0.0192
5,RRIRIRPPRLPRPRPRPPQWPRP,0.205
6,RRIRFRPPRLPRPRPRPDCWPRP,-0.0344
7,RRIRARPPRLPRPRPRPAYRPRP,-0.086
8,RRIRYRPPRLPRPRPRPIHLPRP,-1.26
9,RRIRPRPPRLPRPRPRPYFTPRP,-0.882
10,RRIRFRPPRLPRPRPRPAWHPRP,0.259
11,RRIRDRPPRLPRPRPRPTDQPRP,0.118
12,RRIRERPPRLPRPRPRPLAGPRP,-0.113
13,RRIRHRPPRLPRPRPRPWNMPRP,-0.14
14,RRIRIRPPRLPRPRPRPRMSPRP,-0.323
15,RRIRMRPPRLPRPRPRPTDYPRP,0.166
16,RRIRYRPPRLPRPRPRPNYSPRP,-1.39
17,RRIRKRPPRLPRPRPRPTLIPRP,-0.0752
18,RRIRPRPPRLPRPRPRPQAGPRP,0.00187
19,RRIRARPPRLPRPRPRPMIPPRP,0.0233
20,RRIRERPPRLPRPRPRPNRMPRP,-1.36
21,RRIRQRPPRLPRPRPRPMREPRP,0.0211
22,RRIRDRPPRLPRPRPRPMAEPRP,0.902
23,RRIRQRPPRLPRPRPRPGQPPRP,0.385
24,RRIRLRPPRLPRPRPRPMICPRP,0.13
25,RRIRHRPPRLPRPRPRPWEPPRP,-0.0767

row,Sequence,shrunken log2 fold change
1,RRIRCRPPRLPRPRPRPTKGPRP,-0.0938
2,RRIRGRPPRLPRPRPRPVDAPRP,0.395
3,RRIRKRPPRLPRPRPRPMFHPRP,-0.144
4,RRIRRRPPRLPRPRPRPWKWPRP,-0.00244
5,RRIRIRPPRLPRPRPRPIEAPRP,-0.01
6,RRIRPRPPRLPRPRPRPTMGPRP,0.0476
7,RRIRFRPPRLPRPRPRPHMHPRP,-0.655
8,RRIRMRPPRLPRPRPRPRETPRP,1.49
9,RRIRSRPPRLPRPRPRPLFMPRP,-0.236
10,RRIRNRPPRLPRPRPRPWGQPRP,0.0191
11,RRIRNRPPRLPRPRPRPQPLPRP,-0.102
12,RRIRYRPPRLPRPRPRPRQTPRP,-0.0574
13,RRIRWRPPRLPRPRPRPCSIPRP,-0.134
14,RRIRNRPPRLPRPRPRPIMVPRP,0.00732
15,RRIRDRPPRLPRPRPRPHHCPRP,-0.126
16,RRIRLRPPRLPRPRPRPTTEPRP,-0.00894
17,RRIRKRPPRLPRPRPRPTLMPRP,0.758
18,RRIRFRPPRLPRPRPRPDRWPRP,0.0556
19,RRIRKRPPRLPRPRPRPKHWPRP,0.162
20,RRIRTRPPRLPRPRPRPKVHPRP,-0.429
21,RRIRTRPPRLPRPRPRPVTWPRP,-0.0681
22,RRIRARPPRLPRPRPRPDAMPRP,1.02
23,RRIRSRPPRLPRPRPRPVLKPRP,-0.0386
24,RRIRERPPRLPRPRPRPKMDPRP,-0.0491
25,RRIRWRPPRLPRPRPRPYSCPRP,-0.705

row,Sequence,shrunken log2 fold change
1,RRIRIRPPRLPRPRPRPIDMPRP,-0.0681
2,RRIRQRPPRLPRPRPRPWVWPRP,0.0723
3,RRIRYRPPRLPRPRPRPLEIPRP,-0.00674
4,RRIRMRPPRLPRPRPRPEKCPRP,-0.0105
5,RRIRCRPPRLPRPRPRPMADPRP,-0.0181
6,RRIRPRPPRLPRPRPRPFWSPRP,-0.143
7,RRIRHRPPRLPRPRPRPKDTPRP,-0.15
8,RRIRYRPPRLPRPRPRPVRIPRP,-0.053
9,RRIRCRPPRLPRPRPRPFSEPRP,-0.929
10,RRIRHRPPRLPRPRPRPRINPRP,-0.0802
11,RRIRKRPPRLPRPRPRPFWEPRP,0.341
12,RRIRQRPPRLPRPRPRPDWQPRP,0.0854
13,RRIRFRPPRLPRPRPRPFTNPRP,-0.125
14,RRIRHRPPRLPRPRPRPCFAPRP,0.0434
15,RRIRMRPPRLPRPRPRPHAVPRP,0.353
16,RRIRFRPPRLPRPRPRPDGEPRP,0.0232
17,RRIRARPPRLPRPRPRPQMNPRP,-0.113
18,RRIRKRPPRLPRPRPRPGVRPRP,1.16
19,RRIRKRPPRLPRPRPRPKMGPRP,0.0837
20,RRIRWRPPRLPRPRPRPTGGPRP,0.511
21,RRIRRRPPRLPRPRPRPNPIPRP,0.208
22,RRIRRRPPRLPRPRPRPVVSPRP,0.132
23,RRIRGRPPRLPRPRPRPPFLPRP,0.444
24,RRIRIRPPRLPRPRPRPFTDPRP,0.0112
25,RRIRVRPPRLPRPRPRPISMPRP,0.0223
